Measured values as given in patent publication US20260125472A1 (HEFEI TG IMMUNOPHARMA, published 2026).

What was measured:
CD3 on CD8 T cells [1] = biological target: T1, CD3 on CD8 T cells (Homo sapiens (Human), UniProt P07766 23-207); assay: flow cytometry, CD8 T cells in PBMCs, binding ratio % [panel A]
T1 construct: Native CD3 complex on CD8 T cells among PBMCs; also called T cells (PBMCs gated with anti-human CD8 antibody)
Protocol: (1) PBMCs were diluted to 2×10⁶/ml with PBS and added to a 1.5 ml EP tube at 100 μl/tube, goat serum was added thereto at 10 μl/tube. The cells were blocked at 4° C. for 30 min. The serially diluted bispecific antibodies, Cross3×Trop2, Cross303×Trop2, Cross307×Trop2, Cross308×Trop2, Cross309×Trop2, Cross310×Trop2, Cross311×Trop2, Cross312×Trop2, Cross313×Trop2, Cross314×Trop2, Cross316×Trop2, Cross317×Trop2, Cross318×Trop2, Cross323×Trop2, Cross325×Trop2, Cross326×Trop2, Cross3×PDL1, Cross313×PDL1, Cross316×PDL1, Cross325×PDL1, and control hIgG1LALA (purchased from Bio-Tech) were added and incubated at 4° C. for 30 min. 1 ml of PBS was added to the EP tube, followed by centrifugation at 3500 rpm for 5 min at 4° C. The supernatant was discarded, and the system was washed again with PBS. After centrifugation, the supernatant was discarded, and the cells were resuspended with PBS at 100 μl/tube. 1 μl/tube Alexa-647-labeled goat anti-human IgG secondary antibody (purchased from Jackson lab) and 0.5 μl/tube PerCP-Cy5.5-labeled anti-human CD8 antibody were added and incubated at 4° C. in the dark for 30 min. The cells were washed twice with PBS. After centrifugation, the supernatant was discarded. The cells were resuspended with 200 μl/tube of PBS and assay is performed by flow cytometry.

CD3E&D protein [2] = biological target: T2, CD3E&D protein (UniProt P04234 22-105); assay: ELISA, coated CD3E&D protein, OD450 [panel A]
T2 construct: Purchased from Acro; also called CD3 E&D antigens; CD3E&D antigen protein
Source text: In this example, the binding properties of the CD3×Trop2 and CD3×PDL1 bispecific antibody (the production method and the amino acid sequences of the heavy and light chains were shown in Example 1) were detected by using ELISA. The CD3E&D, Trop2, or PDL1 protein was coated onto 96-well plates by inventors, and the strength of the signal after the addition of the antibody was used to determine the binding properties of the antibody and the corresponding protein.
(1) CD3E&D protein (purchased from Acro) was diluted to 2 μg/ml with PBS buffer, added to a 96-well plate at a volume of 100 μL/well, and placed at 4° C. overnight. The PBS buffer in the 96-well plate was aspirated, and the plate was washed 6 times with PBST (pH 7.2 PBS containing 0.1% Tween 20) buffer. Then, 200 μL/well PBS/10% BSA was added and incubated at 37° C. for 2 h for blocking. The blocking solution was removed, and the plate was washed 6 times with PBST. […] The absorbance was read at 450 nm using a microplate reader.

[3] = biological target: T3, PDL1 on A-375 melanoma cells, HCT-15 colorectal cancer cells and A549 lung cancer cells (UniProt Q9NZQ7 19-290, limits assumed); assay: flow cytometry, A549 cells, MFI [panel B]
T3 construct: whole, on cells
In short: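 Cells were blocked with goat serum at 4° C for 30 min, then incubated with serially diluted bispecific antibodies or hIgG1LALA control at 4° C for 30 min. Bound antibody was detected with Alexa-647 anti-human IgG (4° C, 30 min, dark) and read by flow cytometry.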

PDL1 protein = biological target: T4, PDL1 protein (UniProt Q9NZQ7 19-238); assay: ELISA, coated PDL1 protein, OD450 [panel A]
T4 construct: Bought recombinant protein
In short: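 PDL1 protein coated at 2 μg/ml overnight at 4 °C, blocked with PBS/10% BSA; serially diluted bispecific antibodies or control IgG1LALA bound 1 h at 37 °C. Detection with HRP anti-human Fab secondary antibody and TMB for 3 min, stopped with sulfuric acid, absorbance at 450 nm.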

CD3E&D protein [4] = biological target: T2, CD3E&D protein; assay: ELISA, coated CD3E&D protein, OD450 [panel B]
Protocol: In this example, the binding properties of the parental antibody Cross3 and the CD3 affinity-reduced antibody (the production method and the amino acid sequences of the heavy and light chains were shown in Example 1) were detected by ELISA. The CD3E&D protein was coated onto a 96-well plate by the inventors, and the strength of the signal after the addition of the antibody was used to determine the binding properties of the antibody and CD3E&D.
CD3E&D protein (purchased from Acro) was diluted to 2 μg/ml with PBS buffer, added to a 96-well plate at a volume of 100 μL/well, and placed at 4° C. overnight. The PBS buffer in the 96-well plate was aspirated, and the plate was washed 6 times with PBST (pH 7.2 PBS containing 0.1% Tween 20) buffer. Then, 200 μL/well PBS/10% BSA was added and incubated at 37° C. for 2 h for blocking. The blocking solution was removed, and the plate was washed six times with PBST. Then, the to-be-tested antibodies serially diluted with PBST/0.05% BSA, Cross3, Cross303, Cross307, Cross308, Cross309, Cross310, Cross311, Cross312, Cross313, Cross314, Cross316, Cross317, Cross318, Cross323, Cross325, Cross326, and control IgG1 (purchased from Bio-Tech) were added at 100 μL/well, and incubated at 37° C. for 1 h. The reaction system was removed, and the plate was washed 6 times with PBST. Then, the cells were incubated at 37° C. for 1 h with HRP (horseradish peroxidase)-labeled anti-human secondary antibody (Fab specific) (purchased from Sigma) serially diluted with PBST/0.05% BSA at 100 μL/well. The plate was washed six times with PBST, TMB (tetramethylbenzidine) was added at 80 μL/well and incubated at room temperature for 3 min. 4 M sulfuric acid was added at 80 μL/well to terminate the reaction. The absorbance was read at 450 nm using a microplate reader.

CD3 on CD8 T cells [5] = biological target: T1, CD3 on CD8 T cells; assay: flow cytometry, CD8 T cells in PBMCs, MFI [panel B]
Protocol: (§1) PBMCs were diluted with PBS to 2×10⁶/mL and added to a 1.5 ml EP tube at a volume of 100 μL/tube, 10 μL/tube of goat serum was added thereto and incubated at 4° C. for 30 min for blocking. […] 1 mL of PBS was added to the EP tube, followed by centrifugation at 3500 rpm for 5 min at 4° C. The supernatant was discarded, and the cells were washed again with PBS. After centrifugation, the supernatant was discarded, and the cells were resuspended with 100 μl/tube PBS. 1 μl/tube Alexa-647-labeled goat anti-human secondary antibody (purchased from Jackson lab) and 0.5 μl/tube PerCP-Cy5.5-labeled anti-human CD8 antibody were added and incubated at 4° C. in the dark for 30 min. The cells were washed twice with PBS, and the supernatant was discarded after centrifugation. The cells were resuspended with […] of PBS and assayed using the flow cytometry.

CD3 on CD8 T cells [6] = biological target: T1, CD3 on CD8 T cells; assay: flow cytometry, CD8 T cells in PBMCs, binding ratio % [panel A]; remark: listed apart in the source
Protocol: as §1

CD3E&D protein [7] = biological target: T2, CD3E&D protein; assay: SPR (Biacore 8K), antibody on CM5 chip, CD3 E&D antigen as analyte; parameters: Fold change: reference not given here
Protocol: In a Biacore 8K (Cytiva) system, the antibody was diluted to 10 μg/mL in HBS-EP running buffer and coupled to a CM5 chip (Cytiva) at a flow rate of 10 μL/min.

T1 sequence (P07766 23-207 limits assumed): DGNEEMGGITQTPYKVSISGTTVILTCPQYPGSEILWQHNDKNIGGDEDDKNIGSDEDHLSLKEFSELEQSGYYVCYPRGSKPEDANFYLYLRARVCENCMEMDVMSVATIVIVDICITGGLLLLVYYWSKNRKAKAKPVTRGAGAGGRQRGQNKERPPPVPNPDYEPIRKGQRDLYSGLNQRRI
T2 sequence (chain, as listed by the source limits assumed, chain 1 of 2): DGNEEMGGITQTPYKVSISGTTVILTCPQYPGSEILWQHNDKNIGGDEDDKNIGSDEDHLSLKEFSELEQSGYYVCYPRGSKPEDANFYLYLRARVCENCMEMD
T2 sequence (P04234 22-105 limits assumed, chain 2 of 2): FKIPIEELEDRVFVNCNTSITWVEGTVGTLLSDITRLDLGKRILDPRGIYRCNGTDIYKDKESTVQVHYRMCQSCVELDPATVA
T3 sequence (Q9NZQ7 19-290 limits assumed): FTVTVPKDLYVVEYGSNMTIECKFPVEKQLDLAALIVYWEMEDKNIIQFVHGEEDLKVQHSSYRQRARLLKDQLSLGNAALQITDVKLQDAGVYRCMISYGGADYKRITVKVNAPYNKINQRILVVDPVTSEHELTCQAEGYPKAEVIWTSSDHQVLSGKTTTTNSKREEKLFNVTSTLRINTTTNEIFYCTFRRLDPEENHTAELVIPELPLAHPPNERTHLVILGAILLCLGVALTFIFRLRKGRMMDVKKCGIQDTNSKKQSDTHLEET
T4 sequence (Q9NZQ7 19-238 limits assumed): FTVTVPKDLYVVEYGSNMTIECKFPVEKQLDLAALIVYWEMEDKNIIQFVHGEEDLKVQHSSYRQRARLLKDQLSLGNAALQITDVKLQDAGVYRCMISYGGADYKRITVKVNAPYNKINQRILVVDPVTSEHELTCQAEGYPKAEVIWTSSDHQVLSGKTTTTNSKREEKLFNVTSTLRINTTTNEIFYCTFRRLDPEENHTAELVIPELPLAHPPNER

| EC50 (read off the curve) (CD3 on CD8 T cells [1]) [µg/mL] | EC50 (read off the curve) (CD3E&D protein [2]) [µg/mL] | EC50 (read off the curve) [3] [µg/mL] | EC50 (read off the curve) (PDL1 protein) [µg/mL] | EC50 (read off the curve) (CD3E&D protein [4]) [µg/mL] | EC50 (read off the curve) (CD3 on CD8 T cells [5]) [µg/mL] | EC50 (read off the curve) (CD3 on CD8 T cells [6]) [µg/mL] | Fold change (CD3E&D protein [7]) | Kd (CD3E&D protein [7]) [nM] | koff (CD3E&D protein [7]) [s⁻¹] | kon (CD3E&D protein [7]) [M⁻¹ s⁻¹] | Binder |
| --- | --- | --- | --- | --- | --- | --- | --- | --- | --- | --- | --- |
| ~0.2 | ~0.8 | ~1 | ~0.2 |  |  |  |  |  |  |  | Cross316×PDL1 (bispecific antibody, human IgG1, kappa, L234A L235A) scFv: not shown heavy: QVQLVQSGAEVKKPGASVKVSCKASGYSFTGYYMHWVRQAPGQGLEWIGRINPYNGATTYSQNFKDRATMTVDTSISTAYMELSRLRSDDTAVYYCVPTGMGYFLMDYWGQGTLVTVSSASTKGPSVFPLAPSSKSTSGGTAALGCLVKDYFPEPVTVSWNSGALTSGVHTFPAVLQSSGLYSLSSVVTVPSSSLGTQTYICNVNHKPSNTKVDKKVEPKSCDKTHTCPPCPAPEAAGGPSVFLFPPKPKDTLMISRTPEVTCVVVDVSHEDPEVKFNWYVDGVEVHNAKTKPREEQYNSTYRVVSVLTVLHQDWLNGKEYKCKVSNKALPAPIEKTISKAKGQPREPQVCTLPPSREEMTKNQVSLSCAVKGFYPSDIAVEWESNGQPENNYKTTPPVLDSDGSFFLVSKLTVDKSRWQQGNVFSCSVMHEALHNHYTQKSLSLSPGK light: DIQLTQSPSFLSASVGDRVTITCKASQDVGSAVVWYQQKPGKAPKLLIYWASTRHTGVPSRFSGSGSGTEFTLTISSLQPEDFATYFCQQFTSYPTFGQGTKLEIKRTVAAPSVFIFPPSDEQLKSGTASVVCLLNNFYPREAKVQWKVDNALQSGNSQESVTEQDSKDSTYSLSSTLTLSKADYEKHKVYACEVTHQGLSSPVTKSFNRGEC |
|  |  |  |  | ~0.03 | ~2 | ~0.5 | 16.2 | 2.68 | 0.00761 | 2.84e+06 | Cross317 (antibody, human IgG1, kappa, V domains shown) VH: EVQLLESGGGLVQPGGSLKLSCAASGFTFNTYAMNWVRQAPGKGLEWVARIRSKYNNYATYYADSVKDRFTISRDDSKNTAYLQMNNLKTEDTAVYYCVRHGNFGNSYVSWFAGWGQGTLVTVSS VL: ELVVTQEPSLTVSPGGTVTLTCRSSTGAVTTSNYANWVQQKPGQAPRGLIGGTNKRAPGTPARFSGSLLGGKAALTLSGVQPEDEAEYYCALWYSNLWVFGGGTKLTVLR |
